Experiment: soluble on expression in E. coli; label from the status in PepcDB or PDB records

Q: Which “soluble on expression in E. coli” value does the source give for “MAKYQELVEQLKRQIKSGIWHPGDKLPSLRRQSEHSGLSLMTVLHAYQILESQGWVTSQPRSGYRVAPNIKSSNEPQAPAAVSWTEQVDINEFIFDVLQASKNPSMINFGFAYPDPSLYPRYHVNRAMSAAARNMPISTTFDNLPPGNEQLRTIIAKRYAAKGIEISPDEIVITAGALEALTLSLQACTRPGDWVVVESPAFYGALQSLERLGLKALSVRTDPVTGIDLDSLERALQTHDVKACWLMSNFQNPLGFTLSNEKKQKLIELTQRYNVPVIEDDVYSELHAENDSVYPLRMFDDTGNTMLCSSFSKSLIAGLRIGWVAAGKRALEVQKLQLMSTLATSAPVQMTLVHYLTSRNYESHLKQLRKKLFERKSKMTNLLNELLPEEVKVLSQSGGYFIWLELPKHIDALQIYREALKDNISIAPGKMFSLTEQYDHCIRLNASFELNDKYVHALNLLANIIRDHLAK” here?
A: not soluble

Q: Which “soluble on expression in E. coli” value does the source give for “MSLNVVVQKYGGSSVATPERIKNVAQRIKKKVDEGYKVVVVVSAMGKTTDNLIKLAKEISPRPDSRELDMLLATGEQVSAALLSMALKDLGVKAKSLNAFQVKIKTTPHHTSARIVDIDDSVIRENLKDYDVLVVTGFQGVNEHGDLTTLGRGGSDTSAVALAAKLRVPCEIYSDVDGIYTCDPRVHPRAKKLAYITYDEALELTALGAKVLHSRSVEIAKKYGIPIYCASSFTEEEGTMVVERLPEWLEEPVVTGATISHGQIKVSISFLPKDVKYITAIFEEVGKRALNVDMISLVPSNGKVFLSFTILEDHKEDLDEALKEALRDVEGWKSTYEGGFAKLSIVGVGMRTSPGVAARFFEALERAGVTPELVTTSEIKISCLVPEEKAEEALKSVIEEFELEGHHHHHH” here?
A: soluble

Q: With “MKKAALMLITFLGLTACSQGVTSMPDRTQTPCGNKPNCVSTQDQREEHHLEPFTLTESATLDAIEQAALQLSGAKTAEKDGNYLRIECTSKIMRFVDDLELKIDGNTLIVRSESRVGYSDFGVNRKRAEQLRTELSKAELIKLEHHHHHH” as the sequence, how does the “soluble on expression in E. coli” value read?
A: not soluble

Q: With “MSLQSFRVQCPTSTITHNPNSNFPGGIKCQQISGGDGYSTMADGVQTYMFSFGPLSGLADIRNGLPGTQPASIFNTLGNPYTDTTFNGAVGLTPDPDSVPPNQIDGHVDPRPIMDIGVMNGNIPAPLMAIDEDDEFFLTLTNVGMIMRPDLFERHTVHFHGYPNASSFYDGVPDASVAINIGGSFTYYYLAPDAGTYFWHCHITPPEHLQMGMVGQIYVRPRQDRVPAGAALYTALVGQQADLRTACGTTDVLCSTPLPPTNAVKRLNNKNGTPTLYAYNDGDGSTAYDVEYPIQIHGFDPNFHFIGMTFNPEPFTDMKDKYFMLNGRSYPDTITPGPMTTPSSDGALHYSQPLPTVINIPAGGKALLRISNLDVTEYQTLASLGIPMHVIGINARLLRDMAGGDMTYYANSITLGGGESLDVLLDASDTSSYPRGSTFYLYTPNLDHLSNDAENFGGLMTEVHICGAVDPATKQCTEGHHHHHH” as the sequence, how does the “soluble on expression in E. coli” value read?
A: not soluble

Q: With “MSVIIVGGGMAGATLALAISQFSHGTLPVHLIEAKAPEADGHPGFDARAIALAAGTCQQLARIGVWQAISDCATAINTVHVSDRGHAGFVTLDAQDYSLAALGHVAELHDIGLRLFALLRKAPGVTLHCPERVASVSRTQQQVNVTLENGNVIAGSVLVAANGTHSALASRCGVDWHQEPYEQLAVIANVATAIPHQGRAFERFTPNGPLAMLPMSHGRCSLVWCHPLDQRDEVLSWSDAQFCHALQAAFGWRLGRITQAGKRSAYPLALTTAAKVFSHRTVVVGNAAQTLHPIAGQGFNLGLRDVMSLAETLVAAQDAGEDIGAWHVLSRYQQRRQVDRDTTIGVTNGLVHLFANRWAPLVIGRNIGLMAMELLPPARDALAQRTLGWVARLEHHHHHH” as the sequence, how does the “soluble on expression in E. coli” value read?
A: not soluble

Q: With “MLEINKIHQMNCFDFLDQVENKSVQLAVIDPPYNLSKADWDSFDSHNEFLAFTYRWIDKVLDKLDKDGSLYIFNTPFNCAFICQYLVSKGMIFQNWITWDKRDGMGSAKRRFSTGQETILFFSKSKNHTFNYDEVRVPYESTDRIKHASEKGILKNGKRWFPNPNGRLCGEVWHFSSQRHKEKVNGKTVKLTHITPKPRDLIERIIRASSNPNDLVLDCFMGSGTTAIVAKKLGRNFIGCDMNAEYVNQANFVLNQLEIN” as the sequence, how does the “soluble on expression in E. coli” value read?
A: soluble

Q: With “MSMIHKFSMNGYNIVLDVNGGAVHVLDDVAYDLLDFYKEKSKEEILEILKSKYQEEKINEAYEEILNLEKEGLLYTEDTYQYHPSFVHREPVVKALCLNVAHDCNLKCKYCFAAQGDFGGEKELMSFEVGKAAIDYLIANSGSRKNLEIDFFGGEPLMNFEVVKQLVDYGRSVEKDYNKNIRFTITTNGVLLNDEIIDYINENMHNVVLSLDGRKEVNDNMRPTLNDKGSYDITLPRFKKLVEKRSKDKYYYIRGTFTRDNLDFSKDVMHFADLGFKLTSVEPVVGDESNPYALREEDLPKIFEEYEKFAVEYADRQLQGDGFKFFHFMIDLNQGPCVIKRITGCGAGNEYLSVTPNGDIYPCHQFVGNEEFKMANIFDEEIVLPENLKNMFREAHVYTKEECKQCWNKFYCSGGCHANAINFNSDISKPYELGCEMQRKRTECSIMIQAKLMLEGATN” as the sequence, how does the “soluble on expression in E. coli” value read?
A: not soluble

Q: With “MKNMTALSPSELPRLIDFLEQRNEFAVYAGRVHIHPVTRFCIYWLLLTMTRIREAALMEWSELDGEVWRIPAERKKERRGHDVPLSRAMRWVLDQARGLNVNGRFVFESVNFQGHINKESPHVAMRRSGLDTTAHGLRSLARTYLREVLKVYNDVAEKLLAHSLGLEHHHHHH” as the sequence, how does the “soluble on expression in E. coli” value read?
A: not soluble

Q: Which “soluble on expression in E. coli” value does the source give for “MKVLGLIVEYNPFHNGHLYHLEESKKISGADFVVCVMSGNFIQRGEPAIVNKWARTKMALSAGADLVIELPLSCAMASAEYFASGAVRILNDIGIVDYICFGSEHGDVKTLDYIAQILVEEPESYKSFLKEELDNGLSYPAARESALKKYTAHSINIPQIISSSNNILGIEYLKALRRIKSSIIPLTIKRINNDYNTENITGSISSASSIRKYISTSNSTSFDDVLAMTMPKTSVDILFEEFSAGRGPVFKEDFYPVVTSLIRKMTPEQIRNFAYVSEGLENRIKSAADTAGTYEELVESICTRRYTKTRVQRILMGILMGVTSKDLDMLSRFDSPQYARILGFNSKGKQLLSQIKKKSSIPLVLKLSDFIKSCDPVLKRKLELEILATDLYVMCYKNPAFRKAGQEFTQNIIIM” here?
A: soluble

Q: Which “soluble on expression in E. coli” value does the source give for “MKISVLVPTLGTREKEIRRLLETLEKQSYKDFEIIFVTQDNHEIVKDIIYKYSNLDIKQIEMSVKGLSRARNRGLEQASGEIVVLSDDDCWYPANAFEIVVNAFKKRQCAKIVLSQIFDPEKNIPYKNYTSDEEYVRNKLQLMSKSSIEVAFKKDLVMNKKFDERLGLGSEFVCGEEVDFLLSNYEKNAIFYIPEVTVYHKKKENGSSNKQIIAKGAIYGKNFNIFICVLVLLRDLMLKKENNFKYFFEGYNEYFKRTN” here?
A: not soluble

Q: With “GMDTRKLLLTAQEISRMKGEHKVHFLNPGAVRVNKSLGDAVGLRHMGIHLIQIEPGKESTEYHLHHYEEEAVYVLSGKGTLTMENDQYPIAPGDFVGFPCHAAAHSISNDGTETLVCLVIGQRLDQDVVDYPNQHKRLYRNNGEWNLVDMADIRVLREPTQK” as the sequence, how does the “soluble on expression in E. coli” value read?
A: soluble

Q: Which “soluble on expression in E. coli” value does the source give for “MGSSHHHHHHSSGLVPRGSHMFKPKKKLGQCFLIDKNFVNKAVESANLTKDDVVLEIGLGKGILTEELAKNAKKVYVIEIDKSLEPYANKLKELYNNIEIIWGDALKVDLNKLDFNKVVANLPYQISSPITFKLIKRGFDLAVLMYQYEFAKRMVAAAGTKDYGRLSVAVQSRADVEIVAKVPPSAFYPKPKVYSAIVKIKPNKGKYHIENENFFDDFLRAIFQHRNKSVRKALIDSSKELNYNKDEMKKILEDFLNTNSEIKNLINEKVFKLSVKDIVNLSNEFYRFLQNRGRL” here?
A: soluble

Q: For “MMIEPKEKASIGIIGGSGLYDPQILTNVKEIKVYTPYGEPSDNIILGELEGRKVAFLPRHGRGHRIPPHKINYRANIWALKSLGVKWVIAVSAVGSLRLDYKPGDFVVPNQFIDMTKGRTYTFFDGPTVAHVSMADPFCEHLRSIILDSAKDLGITTHDKGTYICIEGPRFSTRAESIVWKEVFKADIIGMTLVPEVNLACEAEMCYSVIGMVTDYDVFADIPVTAEEVTKVMAENTAKVKKLLYEVIRRLPEKPDERKCSCCQALKTALVLEHHHHHHHH”, which “soluble on expression in E. coli” value is on record?
A: soluble

Q: For “MSLAACSGGGNSSQGSGGSKFAFWDMPWGSPGPDYLAAGKEISAAFSGGSATYQSISWDGWLQTFSSAIAAGTGPAISTGGAFQSLQYYVQDAVHPADGVIAKLRSKGQLDDFLPGTLDVFKYKGAYTALPWNVDSRLLWYRKSLLEKAGVEEPRSWDDLYRVGVALKKNDVYGMVASGGAGGNAYQTFLSFVFNNGGGLFDKDGEPQCVTDANVEAVEFLMKLAKDGIMDPGSVSYTVANLNDQFSSGAAALSILPPDIANSFEDPRLKADITLGSPLTSPNGTKGTMAYTSDLILYTGDWDTDVVEDFAVYYLDAMSAYWKKGVLNKVPVRQSILDLPEVQAQPNLVKATKEWLPVGKSLTQLAGEPFPEINAVDGGQAITQWAQQVIQAKSSGEQTLRTLQDGIEKVMEGHHHITTDPNSSSVDKLAAALEHHHHHH”, which “soluble on expression in E. coli” value is on record?
A: soluble

Q: Which “soluble on expression in E. coli” value does the source give for “MNPNHNEGLLELYTQAISLEALKDAEQFLENSLLGKDAQVERLLAQVLIEEQQIETNRKKIAQLRIEKEELEFDCANSDLKSLEQMQAERDELQRKCQPGQHTKSNHKSSEQLLRMKKETDALRAYMKKISQFED” here?
A: not soluble

Q: For “MGSDKIHHHHHHMSKAKELTPEQFRKMQLTELDMLVEFDKVCRKHNINYVLFGGSLLGAVRHKGYIPWDDDADIGMLREDYDTFKKYASEMNSEICYFQDHDTDPEYRWGYGKLRRTNTIYVRVGQEHLKNKTGIFVDVFPMDDVPLSTLGQIVQDRKVYCLRKILWSEVARVQSTGFMKLWYSVLAKIPVEWVFSRLNKYAVKSKNITPNRVRCLSFPATGTLYKKNSLKTRYSMPKSWFTNRAEYLFEGRLLYSSKEYDEVLKYIYGKYMELPPKDKREQHSPFSKIKFQDEEMIV”, which “soluble on expression in E. coli” value is on record?
A: not soluble

Q: Which “soluble on expression in E. coli” value does the source give for “MSLEKSYWEQAHLQLPLKYTWKISRNASTEKINVIVFLCIDGRTYPGEAAPNVRYGESVELIDLQFKHFQTVWKDSLLQDEHAYNDVLDGLKLCQSLRFALESAYVHARCDKDPAFFERYTGIKMHTSPLATSYTLPIMDPGQIQEFIQTHDLTRFDTLKIKTGKEESKELIKTASRYFDKMIRVDANEAWTDPDLLIKELEELKRIPLEFIEQPFESAQKDAYKYFKKYSKIPVIADESITFAPDLKEIKELFHGVNMKLMKAGGYREGANILLKSKELGLKTMVGCMVETTLGIRSGMWISGHSDYIDLDGSFVIDNEPFKLVSENLGRLVIKQVNFFIEKWQKEGHHHHHH” here?
A: soluble

Q: Which “soluble on expression in E. coli” value does the source give for “MGSDKIHHHHHHMYLLDSAIAKQIVSRTMKIIGHNINVMNGQGMILGSGDPKRIGSIHEGALLAIAQNRNVEISQEVAASLHGVKPGINLPLHYQGQIIGVVGITGDPNELTHYGELLKMTAEMIVEQANLQDKLQWENRQREEFILQLIKAETDDRQLHRWAKQLDIDMSMPRVAAIIEISEKSTPIKIPKRPSDPLAIDLADTLQVNASDDRNHRVGETLKQVLHLLQYPDRGNLIAMTSMSQLVILKPAFLDGKQWDPELENQRIDRLLQRLPAQMNLNFKIALGHFFPENGGIARSYQTALETLALGKQLNPEGNKYLFEDYSLQVLLSGLKYDWRGQALAMPYQQLAKADKNGQLRKTLAAYITHFGDAQQCANTLFIHRNTLRYRLDKIQQITQADIQSLHGLLSLYLGQLIDSSKNTG” here?
A: not soluble
